Laboratory results published in article PMC3995681, “Structural, Kinetic and Proteomic Characterization of Acetyl Phosphate-Dependent Bacterial Protein Acetylation” (PLoS ONE, 2014).

Molecular target: the molecule itself
Test: crystal structure; GapA crystals from PACT G2 (0.2 M sodium bromide, 0.1 M Bis Tris propane 7.5, 20% PEG 3350), grown at 22°C, soaked with about 10 mM acP for less than 30 sec; data at 100 K

B1: glyceraldehyde-3-phosphate dehydrogenase (GapA) from E. coli (enzyme, E. coli K-12, UniProt P0A9B2 1-331, looked up)
chain: MTIKVGINGFGRIGRIVFRAAQKRSDIEIVAINDLLDADYMAYMLKYDSTHGRFDGTVEVKDGHLIVNGKKIRVTAERDPANLKWDEVGVDVVAEATGLFLTDETARKHITAGAKKVVMTGPSKDNTPMFVKGANFDKYAGQDIVSNASCTTNCLAPLAKVINDNFGIIEGLMTTVHATTATQKTVDGPSHKDWRGGRGASQNIIPSSTGAAKAVGKVLPELNGKLTGMAFRVPTPNVSVVDLTVRLEKAATYEQIKAAVKAAAEGEMKGVLGYTEDDVVSTDFNGEVCTSVFDAKAGIALNDNFVKLVSWYDNETGYSNKVLDLIAHISK
modifications: acetyl-lysine at K46, K249, K257 and K116 after the acP soak of the crystals (not in all molecules of the asymmetric unit)
notes: glyceraldehyde-3-phosphate dehydrogenase GapA, E. coli K-12, ORF of the gene from the ASKA clone; The crystals were grown from unmodified protein and acetylated by a soak with acP of under 30 sec; source: E. coli BL-21 (DE3) Magic cells, ASKA clone in pCA24N, purified
stoichiometry N: 4
